One data set addresses Sox2 HMG (human) (UniProt P48431). Kind of data set: fluorescence anisotropy. Conditions: FP at 4°C, ERα: 20 mM Tris pH 7.5 (at 25°C), 100 mM NaCl, 5% glycerol, 0.01% IGEPAL, Sox2: 10 mM Tris pH 7.5 (at 25°C), 135 mM KCl, 15 mM NaCl, 0.1 mg/mL BSA ….
The next data set relates to ERα DBD-Ext (human). Nature of the data set: fluorescence anisotropy. Particulars: apparent, FP at 4°C, ERα: 20 mM Tris pH 7.5 (at 25°C), 100 mM NaCl, 5% glycerol, 0.01% IGEPAL, Sox2: 10 mM Tris pH 7.5 (at 25°C), 135 mM KCl, 15 mM NaCl, 0.1 mg/mL BSA ….

Sox2 HMG (human), sequence (P48431 40-123): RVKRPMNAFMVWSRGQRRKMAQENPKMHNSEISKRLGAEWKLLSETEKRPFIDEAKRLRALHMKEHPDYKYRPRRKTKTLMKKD

With CBS dsDNA (10 bp), the Kd in the data set with Sox2 HMG (human) (printed ≤1, first (high-affinity) transition, 54% of signal) is less than 1 nM; with Sox2 HMG (human) (second (low-affinity) transition), 420 nM.
In the case of ERE dsDNA (18 bp), the Kd in the data set with ERα DBD-Ext (human) (Hill n 2.1) turned out to be 11 nM.
In the case of NBS dsDNA (19 bp), the Kd in the data set with Sox2 HMG (human) (apparent, Hill n 0.57) stood at 29 nM.
Turning to XBP1 hRNA (37 nt), in the data set on ERα DBD-Ext (human) (Hill n 0.91), the Kd is 370 nM.
Turning to hRNA (43 nt), in the data set with Sox2 HMG (human) (apparent, Hill n 1.1), the Kd turned out to be 53 nM.
For ΔERE dsDNA (15 bp, half-site), the Kd in the data set on ERα DBD-Ext (human) (Hill n 1.5, about half the ligand concentration, true Kd may be lower) was 2.8 nM.

For the origin of these results see article PMC11251522.
